Experimental data published in patent US20120121608A1 (CALIFORNIA INSTITUTE OF TECHNOLOGY, published 2012).

T1: RIP, endogenous, in mouse embryonic fibroblasts (mouse, UniProt Q60855 1-656)
T1 sequence (looked up): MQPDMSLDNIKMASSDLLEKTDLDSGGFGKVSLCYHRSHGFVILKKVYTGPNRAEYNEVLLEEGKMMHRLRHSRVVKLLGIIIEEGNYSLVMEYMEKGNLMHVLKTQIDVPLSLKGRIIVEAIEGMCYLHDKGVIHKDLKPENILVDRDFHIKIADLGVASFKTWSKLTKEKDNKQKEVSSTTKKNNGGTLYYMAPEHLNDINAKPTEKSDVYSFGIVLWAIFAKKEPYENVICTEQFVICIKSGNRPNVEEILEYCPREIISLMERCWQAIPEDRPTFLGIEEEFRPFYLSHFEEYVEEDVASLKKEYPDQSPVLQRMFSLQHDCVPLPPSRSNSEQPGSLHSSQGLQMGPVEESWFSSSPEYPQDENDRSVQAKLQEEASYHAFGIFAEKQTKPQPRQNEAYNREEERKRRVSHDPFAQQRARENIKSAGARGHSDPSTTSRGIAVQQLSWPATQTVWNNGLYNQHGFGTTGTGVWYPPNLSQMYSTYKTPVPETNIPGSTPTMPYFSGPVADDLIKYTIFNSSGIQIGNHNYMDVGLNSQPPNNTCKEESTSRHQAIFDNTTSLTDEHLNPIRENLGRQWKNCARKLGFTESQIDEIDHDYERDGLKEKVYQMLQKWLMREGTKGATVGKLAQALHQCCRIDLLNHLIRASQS

B1: Sam68, endogenous, in mouse embryonic fibroblasts (MEF) (other, UniProt Q60749 1-443, looked up)
chain: MQRRDDPASRLTRSSGRSCSKDPSGAHPSVRLTPSRPSPLPHRPRGGGGGPRGGARASPATQPPPLLPPSTPGPDATVVGSAPTPLLPPSATAAVKMEPENKYLPELMAEKDSLDPSFTHAMQLLSVEIEKIQKGESKKDDEENYLDLFSHKNMKLKERVLIPVKQYPKFNFVGKILGPQGNTIKRLQEETGAKISVLGKGSMRDKAKEEELRKGGDPKYAHLNMDLHVFIEVFGPPCEAYALMAHAMEEVKKFLVPDMMDDICQEQFLELSYLNGVPEPSRGRGVSVRGRGAAPPPPPVPRGRGVGPPRGALVRGTPVRGSITRGATVTRGVPPPPTVRGAPTPRARTAGIQRIPLPPTPAPETYEDYGYDDTYAEQSYEGYEGYYSQSQGESEYYDYGHGELQDSYEAYGQDDWNGTRPSLKAPPARPVKGAYREHPYGRY
notes: also called KHDRBS1
B2: TNF receptor, endogenous, in mouse embryonic fibroblasts (MEF) (receptor, UniProt P25118 30-454, looked up)
chain: LVPSLGDREKRDSLCPQGKYVHSKNNSICCTKCHKGTYLVSDCPSPGRDTVCRECEKGTFTASQNYLRQCLSCKTCRKEMSQVEISPCQADKDTVCGCKENQFQRYLSETHFQCVDCSPCFNGTVTIPCKETQNTVCNCHAGFFLRESECVPCSHCKKNEECMKLCLPPPLANVTNPQDSGTAVLLPLVILLGLCLLSFIFISLMCRYPRWRPEVYSIICRDPVPVKEEKAGKPLTPAPSPAFSPTSGFNPTLGFSTPGFSSPVSSTPISPIFGPSNWHFMPPVSEVVPTQGADPLLYESLCSVPAPTSVQKWEDSAHPQRPDNADLAILYAVVDGVPPARWKEFMRFMGLSEHEIERLEMQNGRCLREAQYSMLEAWRRRTPRHEDTLEVVGLVLSKMNLAGCLENILEALRNPAPSSTTRLPR
notes: also called TNF receptor complex
B3: TNF receptor, endogenous, in HeLa cells (receptor, human, UniProt P19438 30-455, looked up)
chain: LVPHLGDREKRDSVCPQGKYIHPQNNSICCTKCHKGTYLYNDCPGPGQDTDCRECESGSFTASENHLRHCLSCSKCRKEMGQVEISSCTVDRDTVCGCRKNQYRHYWSENLFQCFNCSLCLNGTVHLSCQEKQNTVCTCHAGFFLRENECVSCSNCKKSLECTKLCLPQIENVKGTEDSGTTVLLPLVIFFGLCLLSLLFIGLMYRYQRWKSKLYSIVCGKSTPEKEGELEGTTTKPLAPNPSFSPTPGFTPTLGFSPVPSSTFTSSSTYTPGDCPNFAAPRREVAPPYQGADPILATALASDPIPNPLQKWEDSAHKPQSLDTDDPATLYAVVENVPPLRWKEFVRRLGLSDHEIDRLELQNGRCLREAQYSMLATWRRRTPRREATLELLGRVLRDMDLLGCLEDIEEALCGPAALPPAPSLLR

Key:
[1] = molecular target: T1, RIP, endogenous, in mouse embryonic …; test: immunoprecipitation of Sam68 from TNF-treated MEF cells, probed for RIP (FIG. 15E)
[2] = molecular target: B1; test: immunoprecipitation of endogenous Sam68 from MEF cells, immunoblot for TNFR (FIG. 10)
Procedure: (§1) 20-25×10⁶ control and treated cells were lysed in a rotator at 4° C. for 30 minutes in the lysis buffer (1.0% Triton-X100, 20 mM HEPES (pH 7.6), 150 mM NaCl, 1 mM EDTA, 10% glycerol and complete protease inhibitor cocktail). The immunoprecipitates were washed thrice with the lysis buffer and boiled with LDS sample buffer (Invitrogen). Samples with the endogenous protein complexes were resolved in Novex 4-12% Bis-Tris gels (Invitrogen) and transferred to nitrocellulose membrane, probed using relevant antibodies and detected using the SuperSignal West Pico or West Femto Chemiluminescent Substrate System (Pierce). Detection of proteins in the immunoprecipitates with molecular weight close to the denatured heavy and light chains of immunoglobulins (50 kDa and 25 kDa respectively) was performed using native IgG detection reagent (Pierce). […] Additionally, membrane fractionation was performed on cells treated with TNF.

[3] = molecular target: T2, Sam68, endogenous, in human cells (HeLa, 293T) (human, UniProt Q07666 1-443); test: immunoprecipitation of TNFR with anti-TNFR antibody from HeLa cells, immunoblot (FIG. 9E)
T2 construct: also called endogenous Sam68
Procedure: as §1

Binder: B1
- binding result [1]: binds

Binder: B2
- binding result [2]: binds

Binder: B3
- binding result [3]: binds
